{
  "source": "patent US20220289857A1",
  "about": "(Kyowa Kirin, published 2022)",
  "binders": {"B1": {"name": "KO42d mouse monoclonal antibody (hybridoma-derived) (antibody, V domains shown)", "VH": "EVQLLQSGPELVKPVASVKMSCKASGYTFTDYNIHWVKQSHGKSLEWIGYINPNNGVTGYNQKFRGKATLTVNRSSNTAYMDLRSLTSEDSAVYYCTRRYGDYVHAMDCWGQGTSVTVSS", "VL": "DIQMTQSPSSLSASLGERVSLTCRASQDIGSRLNWLQQEPDGTIKRLIYATSSLDSGVPKRFSGSRSGSDYSLTISSLESEDFVDYYCLQYASSPYTFGGGTKLEIK", "notes": "Hybridoma supernatant or purified antibody from an Fn14 knockout mouse; native mouse IgG, kappa"}, "B2": {"name": "41c recombinant mouse IgG1(D265A), kappa antibody (A291/A290) (antibody, V domains shown)", "VH": "EVQLQQSGPELVKPGASVKMSCKASGYTFTDYNMHWVKQSHGKSLEWIGYINPNNGGTNYNQKFKGKATLTVNKSSRSAYMEFRSLTSEDSAVYYCASSGWFTYWGQGTLVTVSA", "VL": "not shown"}, "B3": {"name": "R35B9 Fab (enzymatic digest of the mouse IgG1 antibody) (Fab, V domains shown, not shown: a dimerising Fc or GST)", "VH": "B2 VH with T28I, T30Q, Y50S, N54R, G57W", "VL": "not shown", "notes": "Made with the mouse IgG1 Fab and F(ab')2 preparation kit; also called R35B9 Fab LM042817"}},
  "key": {"[1]": {"molecular_target": "T1, mouse Fn14 (full length) on transfected 293F cells (mouse, UniProt Q9CR75 28-129)", "T1 sequence": "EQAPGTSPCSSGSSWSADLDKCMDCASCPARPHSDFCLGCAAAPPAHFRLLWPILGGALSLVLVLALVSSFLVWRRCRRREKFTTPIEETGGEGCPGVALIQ", "test": "flow cytometry, hybridoma supernatant on 293F cells transfected with mouse Fn14, detected with anti-mouse IgG PE", "experimental": "FIG. 1 depicts binding of anti-Fn14 hybridoma supernatants to human and mouse Fn14 transfected cells. […] Hybridoma supernatant binding was detected using anti-mouse IgG PE.\nSpecifically, the binding activity of hybridoma culture supernatants or purified antibodies to Fn14-expressing cells was evaluated by flow cytometry (FCM). The cell lines evaluated by FCM were Fn14-transfected human embryonic kidney 293F cells (ThermoFisher, cat# R79007) and two cell lines endogenously expressing Fn14, human kidney-derived HK2 cells (ATCC, cat# CRL-2190) and rat kidney-derived NRK-52E cells (Japanese Collection of Research Bioresources Cell Bank (JCRB), cat# IF050480). For FCM analysis, Fn14-expressing cells were harvested using 0.25% trypsin-EDTA (Nacalai Tesque), washed with PBS, and resuspended in SM (Staining Medium: PBS containing 2% FBS, 1 mM EDTA, 0.05% sodium azide). Cells were then seeded in a 96-well plate at 1 ×10⁵ cells per well. Hybridoma supernatant or purified antibody (1 μg/mL final concentration) was added and the cells were incubated at 4° C. for 60 minutes. Cells were then washed with SM, resuspended in goat F(ab′)2 anti-mouse IgG-PE (Southern Biotech Inc.), diluted 1:500 in SM and incubated at 4° C. for 60 minutes. […] Fluorescence intensity was measured by FCM (BD Biosciences, FACS CantoII) and the data were analyzed using FlowJo software (Tomy Digital Biology Co., Ltd.)."}, "[2]": {"molecular_target": "T2, human Fn14 (full length) on cells (human, UniProt Q9NP84 28-129)", "T2 construct": "Transfected 293F cells, or endogenous on HK2, HRMC, A375, HaCaT, primary keratinocytes and dermal fibroblasts; also called hFn14; TNFRSF12A", "T2 sequence": "T1 sequence with S7A, S11R, P29R, H47P, V62T, L63F, A66G, V68L, S70G, G97A", "test": "flow cytometry on HK2 cells (endogenous human Fn14), purified antibody 1 µg/mL, detected with anti-mouse IgG PE", "experimental": "(§1) Primary antibodies were used at a concentration of 1 μg/mL and binding was detected using anti-mouse IgG PE.\n(§2) Specifically, the binding activity of hybridoma culture supernatants or purified antibodies to Fn14-expressing cells was evaluated by flow cytometry (FCM). The cell lines evaluated by FCM were Fn14-transfected human embryonic kidney 293F cells (ThermoFisher, cat# R79007) and two cell lines endogenously expressing Fn14, human kidney-derived HK2 cells (ATCC, cat# CRL-2190) and rat kidney-derived NRK-52E cells (Japanese Collection of Research Bioresources Cell Bank (JCRB), cat# IF050480). For FCM analysis, Fn14-expressing cells were harvested using 0.25% trypsin-EDTA (Nacalai Tesque), washed with PBS, and resuspended in SM (Staining Medium: PBS containing 2% FBS, 1 mM EDTA, 0.05% sodium azide). Cells were then seeded in a 96-well plate at 1 ×10⁵ cells per well. Hybridoma supernatant or purified antibody (1 μg/mL final concentration) was added and the cells were incubated at 4° C. for 60 minutes. Cells were then washed with SM, resuspended in goat F(ab′)2 anti-mouse IgG-PE (Southern Biotech Inc.), diluted 1:500 in SM and incubated at 4° C. for 60 minutes. Cells were washed with SM and finally resuspended in 50 μL of SM. Fluorescence intensity was measured by FCM (BD Biosciences, FACS CantoII) and the data were analyzed using FlowJo software (Tomy Digital Biology Co., Ltd.)."}, "[3]": {"molecular_target": "T3, rat Fn14, endogenous on NRK-52E cells (rat, UniProt Q9CR75 28-129 (mouse entry))", "T3 construct": "Endogenous protein of rat kidney cells; also called NRK52E-A15/Luc cells", "test": "flow cytometry on NRK-52E cells (endogenous rat Fn14), purified antibody 1 µg/mL, detected with anti-mouse IgG PE", "experimental": "as §1, §2"}, "[4]": {"molecular_target": "T2, human Fn14 (full length) on cells", "test": "cell-based or functional assay"}, "[5]": {"molecular_target": "T4, human Fn14 Subdomain 2 peptide (AA51-70), biotinylated (human, added C-terminal Lys carries Ahx-biotin; C-terminal amide)", "T4 peptide": "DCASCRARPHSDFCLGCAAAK", "test": "biolayer interferometry (ForteBio Octet); biotinylated peptide on streptavidin biosensor, response at 120 s of association", "experimental": "(§3) A ForteBio Octet Qke instrument (ForteBio) was used to measure the ability of purified antibodies to bind Fn14 peptides. The assays were performed at 30° C. in 96-well half area plates (Grenier, cat# 675076), with agitation set to 1000 rpm, in kinetic buffer (provided in the assay kit) to minimize nonspecific interactions. Biosensor tips were equilibrated in kinetic buffer for 600 s prior to use. Soluble biotinylated peptides (20 μg/ml, Subdomain 1 (AA30-50): […]-[K-Ahx-biotin]-amide (SEQ ID NO: 182) and Subdomain 2 (AA51-70): […]-[K-Ahx-biotin]-amide (SEQ ID NO: 183) synthesized by 21′ Century Biochemicals) in kinetic buffer were immobilized on streptavidin-coated biosensors (ForteBio, cat# 18-5020) for 300 seconds. […] Purified antibodies (20 μg/m1) were allowed to bind the immobilized peptides. Association was measured for 300 seconds, using the high sensitivity kinetics setting. To characterize the binding properties of the antibody candidates, the response (nm) at t =120 seconds from the start of the association step was recorded. All values were compared to a control sample (isotype antibody)."}, "[6]": {"molecular_target": "T5, human Fn14 Subdomain 1 peptide (AA30-50), biotinylated (human, added C-terminal Lys carries Ahx-biotin; C-terminal amide)", "T5 peptide": "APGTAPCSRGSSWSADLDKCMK", "test": "biolayer interferometry (ForteBio Octet); biotinylated peptide on streptavidin biosensor, antibody in solution, response at 120 s of association", "experimental": "as §3"}, "[7]": {"molecular_target": "T6, cynomolgus macaque Fn14-GST (cynomolgus macaque (Macaca fascicularis))", "T6 construct": "Used from culture supernatant, captured by anti-GST; also called cyno Fn14-GST; CynoFn14", "T6 sequence (chain, as listed by the source)": "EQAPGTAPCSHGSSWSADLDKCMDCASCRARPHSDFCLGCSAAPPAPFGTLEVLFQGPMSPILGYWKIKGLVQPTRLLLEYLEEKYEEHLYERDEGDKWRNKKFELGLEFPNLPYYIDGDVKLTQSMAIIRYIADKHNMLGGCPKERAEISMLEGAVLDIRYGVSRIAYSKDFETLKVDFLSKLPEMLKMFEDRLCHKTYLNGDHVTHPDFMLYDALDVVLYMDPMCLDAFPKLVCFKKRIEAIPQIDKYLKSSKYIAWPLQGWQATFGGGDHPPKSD", "test": "SPR Biacore T200; cyno Fn14-GST captured by anti-GST, Fab analyte; average of two runs", "experimental": "(§4) In order to kinetically analyze the binding activity of anti-Fn14 mouse antibodies 41c, R35B9, and CRCBT-06-002 to recombinant human and cynomolgus macaque Fn14 proteins, the binding activity was measured by surface plasmon resonance method (SPR). Antibodies were generated as described herein. All of the following procedures were carried out using a Biacore T200 (GE Healthcare Bio-Sciences). To determine antibody affinity to human Fn14, recombinant human His-SUMO-Fn14 was immobilized on a CMS sensor chip (GE Healthcare Bio-Sciences) by amine coupling chemistry. In particular, the kinetic assay was carried out by immobilizing on the chip approximately 20-30 RU of recombinant protein, in order to achieve a low protein immobilization level. To determine antibody affinity to cynomolgus macaque Fn14, polyclonal anti-GST antibodies were immobilized on a CMS sensor chip (GE Healthcare Bio-Sciences) by amine coupling chemistry. […] The dissociation time was 1800 seconds and the binding curves were measured at 25° C. […]\n(§5) A sensorgram corresponding to each concentration was obtained (see FIG. 5). […] Cross-reactivity of anti-Fn14 mouse antibodies to recombinant mouse GST-Fn14 protein was measured as described above."}, "[8]": {"molecular_target": "T7, His-SUMO-huFn14 (soluble human Fn14 aa 28-75 with N-terminal 6xHis-SUMO tag) (human)", "T7 construct": "also called His-SUMO-Fn14; His-SUMO-hFn14", "T7 sequence (chain, as listed by the source limits assumed)": "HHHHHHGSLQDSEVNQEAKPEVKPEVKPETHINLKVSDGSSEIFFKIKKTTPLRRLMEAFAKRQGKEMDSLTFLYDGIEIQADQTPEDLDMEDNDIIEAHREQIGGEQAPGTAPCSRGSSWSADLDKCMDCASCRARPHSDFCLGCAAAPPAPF", "test": "SPR Biacore T200; His-SUMO-huFn14 amine-coupled, Fab analyte; 1:1 fit", "experimental": "(§6) In order to kinetically analyze the binding activity of anti-Fn14 mouse antibodies 41c, R35B9, and CRCBT-06-002 to recombinant human and cynomolgus macaque Fn14 proteins, the binding activity was measured by surface plasmon resonance method (SPR). Antibodies were generated as described herein. All of the following procedures were carried out using a Biacore T200 (GE Healthcare Bio-Sciences). To determine antibody affinity to human Fn14, recombinant human His-SUMO-Fn14 was immobilized on a CMS sensor chip (GE Healthcare Bio-Sciences) by amine coupling chemistry. In particular, the kinetic assay was carried out by immobilizing on the chip approximately 20-30 RU of recombinant protein, in order to achieve a low protein immobilization level. To determine antibody affinity to cynomolgus macaque Fn14, polyclonal anti-GST antibodies were immobilized on a CMS sensor chip (GE Healthcare Bio-Sciences) by amine coupling chemistry. In particular, after immobilizing approximately 1500 RU of anti-GST capture antibody onto the chip, cynomolgus macaque GST-Fn14 in culture supernatant was allowed to run for 5 minutes at a flow rate of 30 μL/min in order to achieve a low capture level of approximately 20 RU. Thereafter, antibody Fab fragments, serially diluted from a high concentration, were allowed to run at a flow rate of 30 μL/min onto the chip for 300 seconds. The dissociation time was 1800 seconds and the binding curves were measured at 25° C. Regeneration was performed with 10 mM glycine pH 1.5 for 30 seconds. The raw data were double referenced by subtraction of the signals from a reference flow cell without immobilized ligand and a buffer blank.\n(§7) A sensorgram corresponding to each concentration was obtained (see FIG. 5). Analysis was carried out using a 1:1 Langmuir fit model using the analysis software attached to the apparatus, Biacore T200 Evaluation software (Biacore), thereby calculating an association rate constant ka [M-1s-1] and a dissociation rate constant kd [s-1] for the recombinant Fn14 proteins. […] Cross-reactivity of anti-Fn14 mouse antibodies to recombinant mouse GST-Fn14 protein was measured as described above."}, "[9]": {"molecular_target": "T8, mouse Fn14-GST (mouse)", "T8 construct": "also called mouse GST-Fn14", "test": "SPR (Biacore T200); mouse Fn14-GST captured by immobilized anti-GST antibody, analyte at 10 nM", "experimental": "as §4, §5"}, "[10]": {"molecular_target": "T7, His-SUMO-huFn14 (soluble human Fn14 aa …)", "test": "SPR Biacore T200; His-SUMO-huFn14 amine-coupled, Fab analyte; average of two runs", "experimental": "as §4, §5"}, "[11]": {"molecular_target": "T6, cynomolgus macaque Fn14-GST", "test": "SPR Biacore T200; cyno Fn14-GST captured by anti-GST, Fab analyte; 1:1 fit", "experimental": "as §6, §7"}},
  "note": "Residue numbers refer to the chain shown, from its start. Names may count otherwise. “And” between values parts separate entries of the source, which are not always exact repeats. Identical values can stand only once.",
  "data": [
    {"binder": "B1", "values": [
      {"measurement": "binding result", "setting": "[1]", "result": "binds"},
      {"measurement": "binding result", "setting": "[2]", "result": "binds"},
      {"measurement": "binding result", "setting": "[3]", "result": "binds"}
    ]},
    {"binder": "B2", "values": [
      {"measurement": "ICAM-1 MFI on HRMC, 250 ng/mL rhTWEAK, mAb 0.1 µg/mL", "setting": "[4]", "result": 13100, "unit": "MFI"},
      {"measurement": "binding result", "setting": "[5]", "result": "no binding (tested: 20 µg/mL)"},
      {"measurement": "binding result", "setting": "[6]", "result": "binds"}
    ]},
    {"binder": "B3", "values": [
      {"measurement": "Kd", "setting": "[7]", "result": 0.229, "unit": "nM"},
      {"measurement": "Kd", "setting": "[8]", "result": "0.205 nM and 0.21 nM"},
      {"measurement": "koff", "setting": "[8]", "result": "0.00063 s⁻¹ and 0.000427 s⁻¹"},
      {"measurement": "kon", "setting": "[8]", "result": "3.07e+06 M⁻¹ s⁻¹ and 2.03e+06 M⁻¹ s⁻¹"},
      {"measurement": "binding result", "setting": "[9]", "result": "binds"},
      {"measurement": "Kd", "setting": "[10]", "result": 0.208, "unit": "nM"},
      {"measurement": "Kd", "setting": "[11]", "result": "0.235 nM and 0.222 nM"},
      {"measurement": "koff", "setting": "[11]", "result": "0.000342 s⁻¹ and 0.00038 s⁻¹"},
      {"measurement": "kon", "setting": "[11]", "result": "1.46e+06 M⁻¹ s⁻¹ and 1.71e+06 M⁻¹ s⁻¹"}
    ]}
  ]
}
